Measured values published in article PMC7725820, “Heme biosynthesis depends on previously unrecognized acquisition of iron-sulfur cofactors in human amino-levulinic acid dehydratase” (Nature Communications, 2020).

B1: N-terminally MBP-tagged human ALAD, wild type (MBP-ALAD) (enzyme, UniProt P13716 1-330, looked up)
chain: MQPQSVLHSGYFHPLLRAWQTATTTLNASNLIYPIFVTDVPDDIQPITSLPGVARYGVKRLEEMLRPLVEEGLRCVLIFGVPSRVPKDERGSAADSEESPAIEAIHLLRKTFPNLLVACDVCLCPYTSHGHCGLLSENGAFRAEESRQRLAEVALAYAKAGCQVVAPSDMMDGRVEAIKEALMAHGLGNRVSVMSYSAKFASCFYGPFRDAAKSSPAFGDRRCYQLPPGARGLALRAVDRDVREGADMLMVKPGMPYLDIVREVKDKHPDLPLAVYHVSGEFAMLWHGAQAGAFDLKAAVLEAMTAFRRAGADIIITYYTPQLLQWLKEE
notes: aminolevulinic acid dehydratase (ALAD), human, wild type; One [Fe4S4] cluster per monomer when purified anaerobically; The three cofactor states (Fe-S, apo, zinc) are told apart by the assay; the ~480 kD hexamer fits it; also called ALAD WT; [Fe4S4]-ALAD; source: E. coli BL21(DE3), expressed along with the A. vinelandii isc operon, purified anaerobically (amylose resin); also purified …
B2: MBP-ALAD C162A (enzyme, human, UniProt P13716 1-330, looked up)
chain: MQPQSVLHSGYFHPLLRAWQTATTTLNASNLIYPIFVTDVPDDIQPITSLPGVARYGVKRLEEMLRPLVEEGLRCVLIFGVPSRVPKDERGSAADSEESPAIEAIHLLRKTFPNLLVACDVCLCPYTSHGHCGLLSENGAFRAEESRQRLAEVALAYAKAGAQVVAPSDMMDGRVEAIKEALMAHGLGNRVSVMSYSAKFASCFYGPFRDAAKSSPAFGDRRCYQLPPGARGLALRAVDRDVREGADMLMVKPGMPYLDIVREVKDKHPDLPLAVYHVSGEFAMLWHGAQAGAFDLKAAVLEAMTAFRRAGADIIITYYTPQLLQWLKEE
notes: aminolevulinic acid dehydratase (ALAD), human; source: E. coli BL21(DE3), expressed along with the isc operon, purified anaerobically (amylose resin); not shown: MBP, N-terminal, kept
B3: MBP-ALAD K252M (enzyme, human, UniProt P13716 1-330, looked up)
chain: MQPQSVLHSGYFHPLLRAWQTATTTLNASNLIYPIFVTDVPDDIQPITSLPGVARYGVKRLEEMLRPLVEEGLRCVLIFGVPSRVPKDERGSAADSEESPAIEAIHLLRKTFPNLLVACDVCLCPYTSHGHCGLLSENGAFRAEESRQRLAEVALAYAKAGCQVVAPSDMMDGRVEAIKEALMAHGLGNRVSVMSYSAKFASCFYGPFRDAAKSSPAFGDRRCYQLPPGARGLALRAVDRDVREGADMLMVMPGMPYLDIVREVKDKHPDLPLAVYHVSGEFAMLWHGAQAGAFDLKAAVLEAMTAFRRAGADIIITYYTPQLLQWLKEE
notes: as for B2
B4: MBP-ALAD Mut AFR-AAA (enzyme, human, UniProt P13716 1-330, looked up)
chain: MQPQSVLHSGYFHPLLRAWQTATTTLNASNLIYPIFVTDVPDDIQPITSLPGVARYGVKRLEEMLRPLVEEGLRCVLIFGVPSRVPKDERGSAADSEESPAIEAIHLLRKTFPNLLVACDVCLCPYTSHGHCGLLSENGAFRAEESRQRLAEVALAYAKAGCQVVAPSDMMDGRVEAIKEALMAHGLGNRVSVMSYSAKFASCFYGPFRDAAKSSPAFGDRRCYQLPPGARGLALRAVDRDVREGADMLMVKPGMPYLDIVREVKDKHPDLPLAVYHVSGEFAMLWHGAQAGAFDLKAAVLEAMTAAARAGADIIITYYTPQLLQWLKEE
notes: aminolevulinic acid dehydratase (ALAD), human, Ala306-Phe307-Arg308 motif replaced by alanines; source: E. coli BL21(DE3), expressed along with the isc operon, purified anaerobically (amylose resin); not shown: MBP, N-terminal, kept
B5: MBP-ALAD C223A (enzyme, human, UniProt P13716 1-330, looked up)
chain: MQPQSVLHSGYFHPLLRAWQTATTTLNASNLIYPIFVTDVPDDIQPITSLPGVARYGVKRLEEMLRPLVEEGLRCVLIFGVPSRVPKDERGSAADSEESPAIEAIHLLRKTFPNLLVACDVCLCPYTSHGHCGLLSENGAFRAEESRQRLAEVALAYAKAGCQVVAPSDMMDGRVEAIKEALMAHGLGNRVSVMSYSAKFASCFYGPFRDAAKSSPAFGDRRAYQLPPGARGLALRAVDRDVREGADMLMVKPGMPYLDIVREVKDKHPDLPLAVYHVSGEFAMLWHGAQAGAFDLKAAVLEAMTAFRRAGADIIITYYTPQLLQWLKEE
notes: as for B2
B6: MBP-ALAD C132A (enzyme, human, UniProt P13716 1-330, looked up)
chain: MQPQSVLHSGYFHPLLRAWQTATTTLNASNLIYPIFVTDVPDDIQPITSLPGVARYGVKRLEEMLRPLVEEGLRCVLIFGVPSRVPKDERGSAADSEESPAIEAIHLLRKTFPNLLVACDVCLCPYTSHGHAGLLSENGAFRAEESRQRLAEVALAYAKAGCQVVAPSDMMDGRVEAIKEALMAHGLGNRVSVMSYSAKFASCFYGPFRDAAKSSPAFGDRRCYQLPPGARGLALRAVDRDVREGADMLMVKPGMPYLDIVREVKDKHPDLPLAVYHVSGEFAMLWHGAQAGAFDLKAAVLEAMTAFRRAGADIIITYYTPQLLQWLKEE
notes: as for B2
B7: MBP-ALAD C124A (enzyme, human, UniProt P13716 1-330, looked up)
chain: MQPQSVLHSGYFHPLLRAWQTATTTLNASNLIYPIFVTDVPDDIQPITSLPGVARYGVKRLEEMLRPLVEEGLRCVLIFGVPSRVPKDERGSAADSEESPAIEAIHLLRKTFPNLLVACDVCLAPYTSHGHCGLLSENGAFRAEESRQRLAEVALAYAKAGCQVVAPSDMMDGRVEAIKEALMAHGLGNRVSVMSYSAKFASCFYGPFRDAAKSSPAFGDRRCYQLPPGARGLALRAVDRDVREGADMLMVKPGMPYLDIVREVKDKHPDLPLAVYHVSGEFAMLWHGAQAGAFDLKAAVLEAMTAFRRAGADIIITYYTPQLLQWLKEE
notes: as for B2
B8: MBP-ALAD C122A (enzyme, human, UniProt P13716 1-330, looked up)
chain: MQPQSVLHSGYFHPLLRAWQTATTTLNASNLIYPIFVTDVPDDIQPITSLPGVARYGVKRLEEMLRPLVEEGLRCVLIFGVPSRVPKDERGSAADSEESPAIEAIHLLRKTFPNLLVACDVALCPYTSHGHCGLLSENGAFRAEESRQRLAEVALAYAKAGCQVVAPSDMMDGRVEAIKEALMAHGLGNRVSVMSYSAKFASCFYGPFRDAAKSSPAFGDRRCYQLPPGARGLALRAVDRDVREGADMLMVKPGMPYLDIVREVKDKHPDLPLAVYHVSGEFAMLWHGAQAGAFDLKAAVLEAMTAFRRAGADIIITYYTPQLLQWLKEE
notes: as for B2
B9: MBP-ALAD C119A (enzyme, human, UniProt P13716 1-330, looked up)
chain: MQPQSVLHSGYFHPLLRAWQTATTTLNASNLIYPIFVTDVPDDIQPITSLPGVARYGVKRLEEMLRPLVEEGLRCVLIFGVPSRVPKDERGSAADSEESPAIEAIHLLRKTFPNLLVAADVCLCPYTSHGHCGLLSENGAFRAEESRQRLAEVALAYAKAGCQVVAPSDMMDGRVEAIKEALMAHGLGNRVSVMSYSAKFASCFYGPFRDAAKSSPAFGDRRCYQLPPGARGLALRAVDRDVREGADMLMVKPGMPYLDIVREVKDKHPDLPLAVYHVSGEFAMLWHGAQAGAFDLKAAVLEAMTAFRRAGADIIITYYTPQLLQWLKEE
notes: as for B2

Target: the molecule itself
Assay: native gel or EMSA; NativePAGE Bis-Tris gel; aerobically purified, EDTA-treated metal-free wild-type ALAD (aero-apo-ALAD WT)

Stoichiometry N, 6:
B1

Target: the molecule itself
Assay: native gel or EMSA; NativePAGE Bis-Tris gel; MBP-ALAD proteins expressed along with the isc operon in E. coli and purified anaerobically

Stoichiometry N, 6:
B2
B3
B4
B5
B6
B7
B8
B9
